Test results reported in US20050118674A1, “Engineering of Controlled Deamidation Rates in Peptides, Proteins, and Similar Structures” (priority 2003, published 2005).

Experiment: First-order nonenzymatic deamidation of pentapeptides in Tris buffer
Type: physicochemical
Conditions: pH 7.4, 37.0° C., 0.15 M Tris HCl; Asn pentapeptides
Method: One of the discoveries made was that the sequence dependence of deamidation is much richer and covers a wider range than previously thought. In 37° C., pH 7.4, 0.15 M Tris buffer, the combination of XxxAsnYyy and XxxGlnYyy sequences where Xxx and Yyy are any of the naturally occuring amino acids covers a range from less than 1 day to over 15,000 days with the entire range in between available.
It is based on pentapeptide rates measure in 37° C., pH 7.4, 0.15 M Tris buffer. The applicability of a pentapeptide model to sequence dependence was verified in a separate set of experiments. All values listed in this table are experimental except for the four values in boxes, which were estimated from the rest of the data.
It is also based on pentapeptide rates measure in 37° C., pH 7.4, 0.15 M Tris buffer. In this case, the 52 values shown in bold were measured, and the rest of the values were derived from surface fitting.
Deamidation rates are affected by a wide variety of parameters, including, pH, Temperature, Ionic Strength, and Buffer Ions. These rates are measured under pH and Temperature conditions that are applicable to biological systems. The buffer type and concentration were chosen to minimize ion affects to the extent possible given the experimental limitations. Modification of these conditions will change the rates in Tables 1 and 2. As long as the conditions are not taken to extremes (i.e. high temperature, or strongly acidic or basic conditions) the qualitative sequence dependence should remain the same and the rates reported here can be used with necessary adjustments.

Substance	First-Order Deamidation Halftimes of GlyXxxAsnYyyGly
GlyCysAsnMetGly (GCNMG; printed: GlyCysAsnMetGly)	64.5 days
GlyCysAsnPheGly (GCNFG; printed: GlyCysAsnPheGly)	73.9 days
GlyCysAsnProGly (GCNPG; printed: GlyCysAsnProGly)	1550 days
GlyCysAsnSerGly (GCNSG; printed: GlyCysAsnSerGly)	19.0 days
GlyCysAsnThrGly (GCNTG; printed: GlyCysAsnThrGly)	48.7 days
GlyCysAsnTrpGly (GCNWG; printed: GlyCysAsnTrpGly)	111 days
GlyCysAsnTyrGly (GCNYG; printed: GlyCysAsnTyrGly)	83.9 days
GlyCysAsnValGly (GCNVG; printed: GlyCysAsnValGly)	229 days
GlyGluAsnAlaGly (GENAG; printed: GlyGluAsnAlaGly)	25.8 days
GlyGluAsnAmCysGly	32.1 days
GlyGluAsnArgGly (GENRG; printed: GlyGluAsnArgGly)	80.9 days
GlyGluAsnAspGly (GENDG; printed: GlyGluAsnAspGly)	32.0 days
GlyGluAsnCysGly (GENCG; printed: GlyGluAsnCysGly)	44.2 days
GlyGluAsnGluGly (GENEG; printed: GlyGluAsnGluGly)	60.3 days
GlyGluAsnGlyGly (GENGG; printed: GlyGluAsnGlyGly)	1.45 days
GlyGluAsnHisGly (GENHG; printed: GlyGluAsnHisGly)	9.0 days
GlyGluAsnIleGly (GENIG; printed: GlyGluAsnIleGly)	279 days
GlyGluAsnLeuGly (GENLG; printed: GlyGluAsnLeuGly)	130 days
GlyGluAsnLysGly (GENKG; printed: GlyGluAsnLysGly)	77.8 days
GlyGluAsnMetGly (GENMG; printed: GlyGluAsnMetGly)	59.6 days
GlyGluAsnPheGly (GENFG; printed: GlyGluAsnPheGly)	70.2 days
GlyGluAsnSerGly (GENSG; printed: GlyGluAsnSerGly)	16.4 days
GlyGluAsnThrGly (GENTG; printed: GlyGluAsnThrGly)	36.8 days
GlyGluAsnTrpGly (GENWG; printed: GlyGluAsnTrpGly)	98.4 days
GlyGluAsnTyrGly (GENYG; printed: GlyGluAsnTyrGly)	94.5 days
GlyGluAsnValGly (GENVG; printed: GlyGluAsnValGly)	268 days

Same assay, conditions: pH 7.4, 37.0 ° C., 0.15 M Tris HCl; Gln pentapeptides; 52 values measured, rest derived from surface fitting

Substance	First-Order Deamidation Halftimes of GlyXxxGlnYyyGly
GlyCysGlnAlaGly (GCQAG; printed: GlyCysGlnAlaGly)	4100 days
GlyCysGlnArgGly (GCQRG; printed: GlyCysGlnArgGly)	5100 days
GlyCysGlnAspGly (GCQDG; printed: GlyCysGlnAspGly)	6100 days
GlyCysGlnCysGly (GCQCG; printed: GlyCysGlnCysGly)	800 days
GlyCysGlnGluGly (GCQEG; printed: GlyCysGlnGluGly)	5600 days
GlyCysGlnGlyGly (GCQGG; printed: GlyCysGlnGlyGly)	560 days
GlyCysGlnHisGly (GCQHG; printed: GlyCysGlnHisGly)	4200 days
GlyCysGlnIleGly (GCQIG; printed: GlyCysGlnIleGly)	4900 days
GlyCysGlnLeuGly (GCQLG; printed: GlyCysGlnLeuGly)	4800 days
GlyCysGlnLysGly (GCQKG; printed: GlyCysGlnLysGly)	4400 days
GlyCysGlnMetGly (GCQMG; printed: GlyCysGlnMetGly)	3200 days
GlyCysGlnPheGly (GCQFG; printed: GlyCysGlnPheGly)	6500 days
GlyCysGlnProGly (GCQPG; printed: GlyCysGlnProGly)	7100 days
GlyCysGlnSerGly (GCQSG; printed: GlyCysGlnSerGly)	3800 days
GlyCysGlnThrGly (GCQTG; printed: GlyCysGlnThrGly)	3500 days
GlyCysGlnTrpGly (GCQWG; printed: GlyCysGlnTrpGly)	9100 days
GlyCysGlnTyrGly (GCQYG; printed: GlyCysGlnTyrGly)	7900 days

Substance	First-Order Deamidation Halftimes of GlyXxxGlnYyyGly
GlyCysGlnValGly (GCQVG; printed: GlyCysGlnValGly)	5000 days
GlyGluGlnAlaGly (GEQAG; printed: GlyGluGlnAlaGly)	7100 days
GlyGluGlnArgGly (GEQRG; printed: GlyGluGlnArgGly)	5200 days
GlyGluGlnAspGly (GEQDG; printed: GlyGluGlnAspGly)	8300 days
GlyGluGlnCysGly (GEQCG; printed: GlyGluGlnCysGly)	2100 days
GlyGluGlnGluGly (GEQEG; printed: GlyGluGlnGluGly)	8200 days
GlyGluGlnGlyGly (GEQGG; printed: GlyGluGlnGlyGly)	750 days
GlyGluGlnHisGly (GEQHG; printed: GlyGluGlnHisGly)	2500 days
GlyGluGlnIleGly (GEQIG; printed: GlyGluGlnIleGly)	4200 days
GlyGluGlnLeuGly (GEQLG; printed: GlyGluGlnLeuGly)	4300 days
GlyGluGlnLysGly (GEQKG; printed: GlyGluGlnLysGly)	4600 days
GlyGluGlnMetGly (GEQMG; printed: GlyGluGlnMetGly)	5200 days
GlyGluGlnPheGly (GEQFG; printed: GlyGluGlnPheGly)	8400 days
GlyGluGlnProGly (GEQPG; printed: GlyGluGlnProGly)	10000 days
GlyGluGlnSerGly (GEQSG; printed: GlyGluGlnSerGly)	6100 days
GlyGluGlnThrGly (GEQTG; printed: GlyGluGlnThrGly)	5400 days
